According to article doi:10.1101/2025.03.30.646247 (bioRxiv, 2025):

Target: T1, 6xHis-CIPK6 (Arabidopsis thaliana, UniProt O65554 1-441)
T1 sequence: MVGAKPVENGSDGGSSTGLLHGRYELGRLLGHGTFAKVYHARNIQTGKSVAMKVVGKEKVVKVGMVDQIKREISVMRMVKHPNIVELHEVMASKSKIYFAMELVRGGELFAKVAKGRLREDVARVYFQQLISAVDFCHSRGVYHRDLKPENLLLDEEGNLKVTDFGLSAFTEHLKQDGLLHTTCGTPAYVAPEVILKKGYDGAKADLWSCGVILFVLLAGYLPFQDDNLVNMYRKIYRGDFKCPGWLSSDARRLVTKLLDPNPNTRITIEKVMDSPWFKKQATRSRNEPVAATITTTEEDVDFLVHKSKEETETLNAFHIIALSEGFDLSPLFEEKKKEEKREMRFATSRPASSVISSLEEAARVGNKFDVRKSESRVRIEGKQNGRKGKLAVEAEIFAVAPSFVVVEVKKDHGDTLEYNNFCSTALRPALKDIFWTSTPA
Assay: pull-down

B1: GST-RbohD-N (domain or fragment)
chain: MKMRRGNSSNDHELGILRGANSDTNSDTESIASDRGAFSGPLGRPKRASKKNARFADDLPKRSNSVAGGRGDDDEYVEITLDIRDDSVAVHSVQQAAGGGGHLEDPELALLTKKTLESSLNNTTSLSFFRSTSSRIKNASRELRRVFSRRPSPAVRRFDRTSSAAIHALKGLKFIATKTAAWPAVDQRFDKLSADSNGLLLSAKFWECLGMNKESKDFADQLFRALARRNNVSGDAITKEQLRIFWEQISDESFDAKLQVFFDMVDKDEDGRVTEEEVAEIISLSASANKLSNIQKQAKEYAALIMEELDPDNAGFIMIENLEMLLLQAPNQSVRMGDSRILSQMLSQKLRPAKESNPLVRWSEKIKYFILDNWQR
binding result: binds
